# Experimental data published in US10556936B2, “Immunogenic proteins and fragments thereof from allergenic mites” (ALK-ABELLÓ A/S, priority 2016, dated 2020).
# Marks after values point to notes of the source that are not given here.
# Legend:
# [1] = test system: HDM specific T-cell lines from HDM allergic donors; experiment: T cell reactivity of protein: IL-5/IFNg FluoroSPOT or 72 h T cell proliferation in HDM specific T-cell lines (Example 2); assay type: cell-based, human; details: responding donors of tested HDM allergic donors
# Description: PBMCs from European HDM-allergic individuals were recruited in the Copenhagen region (defined by clinical history of allergy to house dust mite and specific IgE to group 1 and group 2 major allergens from Der p and/or Der f and with measured specific IgE (CAP) >0.7 kU/L towards Der p/f 1 or Der p/f 2. In addition, PBMCs from 10 US HDM-allergic individuals were recruited in San Diego (defined by Der p extract IgE titers greater than 0.35 kUA/L). PBMCs were isolated from whole blood by density gradient centrifugation according to manufacturers' instructions (Ficoll-Hypaque, Amersham Biosciences, Uppsala, Sweden). Der p- and Der f-specific extract IgE titers were determined using the ImmunoCAP system (Thermo Fisher, Uppsala, Sweden). In a separate series of experiments, pooled plasma from 10 European and 10 American HDM atopic individuals from the San Diego region, respectively, was utilized to run 2D immunoblots to elucidate IgE and IgG reactivity towards the proteins, which had at least one peptide with positive T cell response.
# T cells reactivity was determined by establishment of HDM specific T-cell lines according to standard methods. In short, PMBCs from HDM allergic donors were cultured for 2-3 weeks in the presence of house dust mite allergen extract. The responses to proteins having SEQ ID NOs 1-44 were assessed by IL-5/IFNg FluoroSPOT (Mabtech FS-0108-10) according manufacturer protocol, (after 2 weeks) or proliferation in a standard 72 h T cell proliferation assay, as described in Henmar H et al., Clin Exp Immunol 2008; 153(3):316-23. (after 3 weeks). In addition these established T cell lines were used for further characterization and epitope mapping.
# [2] = test system: basophils in whole blood from HDM allergic donors; experiment: Basophil Activation Test (BAT); assay type: cell-based, human; details: responding donors of tested HDM allergic donors; whole blood stimulated 1 h
# Outline: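 Basophil activation was read by flow cytometry as increased surface activation markers. The stimulus was a 1 h exposure of blood from 14 HDM-allergic donors to test proteins or major mite allergens at graded concentrations (e.g. 1–1000 ng/ml).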
Molecule,% T cell responding donors to protein [1],% responding donors in BAT Assay [2]
"29 (protein, listed as Dermatophagoides pteronyssinus) MVKIGINGFGRIGRLVLRAAIKKGVEVAAINDPFLDVKYMVYMFKFDSTHGRYQGEVKEEGGLLVVDGQKIQVFQERNPAEIPWGKVGADYVVESTGVFTTIEKAKAHLAGGAKKVIISAPSADAPMYVMGVNHDKYDPKQQIISNASCTTNCLAPLAKVINDKFGIENGLMTTVHAITATQKTVDGPSGKLWRDGRGAGQNIIPASTGAAKAVGKVIPELNGKLTGMALRVPVPDVSVVDLTVTLKNPASYDEIKAAVKAAAESDHWKGILEYTDEEVVSSDFISDTHSSIFDAKAGIALTPTFVKLIAWYDNEFGYSNRVVDLIKYVASK",2 of 27,1 of 8*
"13 (protein, listed as Dermatophagoides farinae) KKTKDCDVEKPIRECLKNGLLRYSDGQKINQFPDSIEDLNRACEELKKSETCARNFIDTCTETSYEKRSLDSLLDGIQRVLKRLCRSQSKKEQLLQNVGCANSVVQDTKLCLKNYRMLVFAANKLNDKSKIMRILCCKSRKVAPCIGEAMKSKGNAVCSAKNIDYFREMHQNIKAEMTAVVCSDFERDQCENVEVPAITEAEYKDQNIFNPLRDLYKKVILA",6 of 29,0 of 16
"25 (protein, listed as Dermatophagoides pteronyssinus) MSSSSGKKYDFSGKVALVTGSSSGIGAAIALQFAQYGAQVTITGRDAAALESVAKRIEAESGHQPLQIVGNLLDQSLPAKLIDGTISKYGRLDFLVNNAGFSTQHRDIHDEKLMEAFDQVYGLNVRAVVQLSQLAATHLEKSKGNIINISSNLSMMPVHIIYSSSKAALDMITKTMAMEFGKKGVRVNSINPGPVATQFMRSLGMPVTFLKENEEFVKELTLLKFVAQPVEIANLASFLASDDARNMTGSIVVNDTGSLLAPRVDFKKLDEIKKK",3 of 26,1 of 8*
"6 (protein, listed as Dermatophagoides pteronyssinus) MVKAVVVLKGDPNVSGTIFFEQQDNGPVKVTGSVQGLKPGLHGFHVHEFGDNTNGCTSAGAHYNPLNKTHGAPNDEERHVGDLGNIEANDKGVANVVIEDSLISLTGEKSIVGRSLVVHADPDDLGRGGHELSKTTGNAGGRLVCGVIGVTK",0 of 27,1 of 8*
